The record followed here is US20040005639A1, “Glycerylaldehyde-3-phosphate dehyrogenase promoter inducing cell death” (priority 2000, published 2004).

For one series, the system named is CGCs. The series can be described thus: Probability of survival of CGCs treated with AraC. Format: cell-based, rat. As to the method: (§1) CGCs were prepared according to the previous report (J. Neurochem., 66,928-935 (1996)). 16 hours after plating, the following were mixed and added to the non-serum cultures. In addition, it mixed beforehand and added in the culture so that the ratio of A and B might be set to 5:1, it might serve at a final concentration of 2 micro g/mL, C might be set to 1 micro L/micro g DNA and D might be set to 6 micro L/micro g DNA.
(§2) The cells were washed 20 hours after plating and the culture was continued for further 4 hours. […]
The probability of survival of CGCs treated with AraC (500 micro M) was 68% for 14 hours and 44% for 24 hours.

In series [1] the test system is rat cerebellum origin granule cells (CGCs). Briefly: Reporter assay: luciferase activity of CGCs transfected with promoter-pGL3-enhanser vector, after AraC addition. Type of series: cell-based. The note with it: for luciferase activity: vector without promoter set to 1.0. As to the method:
The plasmid which inserted promoter sequence (p104-pCR-Script Amp SK (+) and p302-pCR-Script Amp SK (+)) were cleaved at BsmBI site which exists just upstream of translation starting site of GAPDH protein and was created blunt-ends. The fragment was cleaved at the MluI site of 5′-end, sequence including promoter sequence was excised.
The pGL3-enhanser vector (Promega) was opened the MluI-SmaI site, and each promoter sequence excised here was inserted.
Reporter assay was performed with each vector as follows. Reporter assay used the primary culture cell of rat cerebellum origin granule cells (CGCs).
as §1
A) p104-pGL3-enhanser vector or p302-pGL3-enhanser vector both vector contains a firefly luciferase gene on the downstream of the promoter.
B) pRL-SV40 vector (it includes Renilla luciferase gene as an internal standard enzyme on the downstream of SV40 promoter currently activated constantly),
as §2
(A reporter such as luciferase makes a cellular process visible.)

Take `Nc1ccn([C@@H]2O[C@H](CO)[C@@H](O)[C@@H]2O)c(=O)n1` [AraC, cytosine arabinoside]: the “probability of survival of CGCs” value in the series with CGCs (AraC 10 micro M, 14 or 24-hours culture) is “more than 90%”; in the series on CGCs (AraC 500 micro M, 14 hours), 68%; in the series on CGCs (AraC 500 micro M, 24 hours), 44%.

B1: p104: 1.2 kb rat GAPDH promoter fragment amplified from the EcoRV genome library, SEQ ID NO: 1 (nucleic acid, listed as Rattus norvegicus)
DNA: ACTATAGGGCACGCGTGGTCGATGGCTTGGGTTGGTATCTACGACTAAACAAGAGAGAGAATGAGATTAATCTCCGCATAATAGTGTGTATCGGCTGAACATACACAGACACACACAGACACACACATACACACAGACACAGAAACATACGCTTAGCACACACAGAAGCACACATACACAGACAGAAACTCACATACACAGAGACCCACAGATATAGACACACAGAGACACAGATGCACACACAGACCTACTTACACACTCATAGACATAGATACACACACATAGACACACACTGACATATCAACACACCTACAGACACACACACCACACATACGCACACACACATACATGAACACACACATACACACGCACACACATACACACACATGGAAACACATGTTTTATGAAGATCTAGGAATTACCCCAATCACAGTAGAATGGATGCCTGTGTTGGGACCCAGGAGGGACAGGAAATAGAAATGGGCTAGGGGGCTGGAGAGATGGCTCAGAGGTTAAGAGCACTGTCTGCTCTTCCAGAGGTCCGGAGTTCAATTCCCAGAAACCACATGGTGGCTCACAACCATCTATAATCAGGTCTGGTGCCCTCTTCTGGCCTGCAGGCATACATGCAAGCAGAAAGCTGTATGATGTATACATAATAAATAAATAAATTTGAAAAAAAAGAAATGGGCTTAGGGGTGATGGGAAGAGAAGGACTCTGAAGGTCTGTAGACCGCTCATAAACTGGGGCAGACGTTGCTCCTGCTTGAGCACCTGACTTCCCAGTCCATTGCCACCATGGTCTTTGTGCCACCATGGCCAGTCCAAGGCCATCCTTAAACAGGCTGCAAAAAGTTTTAACTAGGACCATTAGATTGTCTCTTAAAACTATGAAAGGTTTTACTTTATTTCTCTCTCTCTCTCTCTCTCTCTCTCTCTCTCATTTTAAAAATATTTTTTCGGCTCTCTGCTCCTCCCTGTTCTAGAGACAGCCGCATCTTCTTGTGCAGTGCCAGCCTCGTCTCATAGACAAGATGGTGAAGGTCGGTGTGAACGGATTTGGCCGTATCGGACGCCTGGTTACCAGGGCTGCCTTCTCTTGTGACAAAGTGGACACTGTTGCC
modifications: CDS (1035)..(1124)
Take B1: the “increase of luciferase activity” value in series [1] (24 hours after AraC addition, CGCs transformed by p104-pGL3-enhanser vector) is on record as 1.7 times. Further, in series [1] (AraC 10 micro M (Table 2), result in words), the promoter activation result is “neither of the two promoters (p104 and p302) showed significant activation”. The luciferase activity in series [1] (Table 1, AraC 500 micro M, culture time after addition 14 hours) was determined as 1.7; in series [1] (Table 1, AraC 500 micro M, culture time after addition 24 hours), 2.4; in series [1] (Table 2, AraC 10 micro M, culture time after addition 14 hours), 1.2; in series [1] (Table 2, AraC 10 micro M, culture time after addition 24 hours) it was 1.3.
